To fix the notation:
T1: LZTR1 R810W-FLAG (human, UniProt Q8N653 1-840)
T1 construct: Stably expressed in U87 cells by lentivirus; also called LZTR1-FLAG-R810W; LZTR1 RW; not shown: FLAG tag
T1 sequence (looked up): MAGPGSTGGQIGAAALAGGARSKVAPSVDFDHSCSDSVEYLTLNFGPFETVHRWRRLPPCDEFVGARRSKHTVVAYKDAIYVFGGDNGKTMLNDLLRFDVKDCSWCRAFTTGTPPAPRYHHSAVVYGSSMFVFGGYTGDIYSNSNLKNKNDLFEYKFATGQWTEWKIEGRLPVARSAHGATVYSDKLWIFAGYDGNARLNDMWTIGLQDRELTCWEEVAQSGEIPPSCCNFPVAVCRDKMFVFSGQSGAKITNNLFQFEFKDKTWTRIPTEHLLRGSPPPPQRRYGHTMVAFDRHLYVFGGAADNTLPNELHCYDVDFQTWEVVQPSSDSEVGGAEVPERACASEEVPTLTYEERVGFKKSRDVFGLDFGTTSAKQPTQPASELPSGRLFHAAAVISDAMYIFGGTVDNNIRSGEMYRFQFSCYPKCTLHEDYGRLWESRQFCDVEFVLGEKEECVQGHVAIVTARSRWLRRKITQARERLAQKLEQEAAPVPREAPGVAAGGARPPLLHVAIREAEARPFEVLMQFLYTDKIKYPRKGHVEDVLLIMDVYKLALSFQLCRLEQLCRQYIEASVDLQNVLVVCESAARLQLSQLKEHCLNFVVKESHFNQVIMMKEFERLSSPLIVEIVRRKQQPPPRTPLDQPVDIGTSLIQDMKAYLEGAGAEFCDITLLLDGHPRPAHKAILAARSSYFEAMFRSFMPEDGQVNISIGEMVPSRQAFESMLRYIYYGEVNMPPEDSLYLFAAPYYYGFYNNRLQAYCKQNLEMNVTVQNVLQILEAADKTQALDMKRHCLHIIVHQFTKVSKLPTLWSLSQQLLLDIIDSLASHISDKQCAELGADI

T2: LZTR1-FLAG (human, UniProt Q8N653 1-840)
T2 construct: Expressed in HEK 293T, HeLa or U87 cells; used as cell lysate; also called LZTR1 wild type-FLAG; LZTR1 WT; not shown: FLAG tag at the C-terminus
T2 sequence (looked up): T1 sequence (looked up) with W810R

B1: RASA3 (other, human, UniProt Q14644 2-834, looked up)
chain: AVEDEGLRVFQSVKIKIGEAKNLPSYPGPSKMRDCYCTVNLDQEEVFRTKIVEKSLCPFYGEDFYCEIPRSFRHLSFYIFDRDVFRRDSIIGKVAIQKEDLQKYHNRDTWFQLQHVDADSEVQGKVHLELRLSEVITDTGVVCHKLATRIVECQGLPIVNGQCDPYATVTLAGPFRSEAKKTKVKRKTNNPQFDEVFYFEVTRPCSYSKKSHFDFEEEDVDKLEIRVDLWNASNLKFGDEFLGELRIPLKVLRQSSSYEAWYFLQPRDNGSKSLKPDDLGSLRLNVVYTEDHVFSSDYYSPLRDLLLKSADVEPVSASAAHILGEVCREKQEAAVPLVRLFLHYGRVVPFISAIASAEVKRTQDPNTIFRGNSLASKCIDETMKLAGMHYLHVTLKPAIEEICQSHKPCEIDPVKLKDGENLENNMENLRQYVDRVFHAITESGVSCPTVMCDIFFSLREAAAKRFQDDPDVRYTAVSSFIFLRFFAPAILSPNLFQLTPHHTDPQTSRTLTLISKTVQTLGSLSKSKSASFKESYMATFYEFFNEQKYADAVKNFLDLISSSGRRDPKSVEQPIVLKEGFMIKRAQGRKRFGMKNFKKRWFRLTNHEFTYHKSKGDQPLYSIPIENILAVEKLEEESFKMKNMFQVIQPERALYIQANNCVEAKDWIDILTKVSQCNQKRLTVYHPSAYLSGHWLCCRAPSDSAPGCSPCTGGLPANIQLDIDGDRETERIYSLFNLYMSKLEKMQEACGSKSVYDGPEQEEYSTFVIDDPQETYKTLKQVIAGVGALEQEHAQYKRDKFKKTKYGSQEHPIGDKSFQNYIRQQSETSTHSI
B2: SHKBP1 (other, human, UniProt Q8TBC3 2-707, looked up)
chain: AAAATAAEGVPSRGPPGEVIHLNVGGKRFSTSRQTLTWIPDSFFSSLLSGRISTLKDETGAIFIDRDPTVFAPILNFLRTKELDPRGVHGSSLLHEAQFYGLTPLVRRLQLREELDRSSCGNVLFNGYLPPPVFPVKRRNRHSLVGPQQLGGRPAPVRRSNTMPPNLGNAGLLGRMLDEKTPPSPSGQPEEPGMVRLVCGHHNWIAVAYTQFLVCYRLKEASGWQLVFSSPRLDWPIERLALTARVHGGALGEHDKMVAAATGSEILLWALQAEGGGSEIGVFHLGVPVEALFFVGNQLIATSHTGRIGVWNAVTKHWQVQEVQPITSYDAAGSFLLLGCNNGSIYYVDVQKFPLRMKDNDLLVSELYRDPAEDGVTALSVYLTPKTSDSGNWIEIAYGTSSGGVRVIVQHPETVGSGPQLFQTFTVHRSPVTKIMLSEKHLISVCADNNHVRTWSVTRFRGMISTQPGSTPLASFKILALESADGHGGCSAGNDIGPYGERDDQQVFIQKVVPSASQLFVRLSSTGQRVCSVRSVDGSPTTAFTVLECEGSRRLGSRPRRYLLTGQANGSLAMWDLTTAMDGLGQAPAGGLTEQELMEQLEHCELAPPAPSAPSWGCLPSPSPRISLTSLHSASSNTSLSGHRGSPSPPQAEARRRGGGSFVERCQELVRSGPDLRRPPTPAPWPSSGLGTPLTPPKMKLNETSF
B3: RETSAT (other, human, UniProt Q6NUM9 19-610, looked up)
chain: KVYLGLFSGSSPNPFSEDVKRPPAPLVTDKEARKKVLKQAFSANQVPEKLDVVVIGSGFGGLAAAAILAKAGKRVLVLEQHTKAGGCCHTFGKNGLEFDTGIHYIGRMEEGSIGRFILDQITEGQLDWAPLSSPFDIMVLEGPNGRKEYPMYSGEKAYIQGLKEKFPQEEAIIDKYIKLVKVVSSGAPHAILLKFLPLPVVQLLDRCGLLTRFSPFLQASTQSLAEVLQQLGASSELQAVLSYIFPTYGVTPNHSAFSMHALLVNHYMKGGFYPRGGSSEIAFHTIPVIQRAGGAVLTKATVQSVLLDSAGKACGVSVKKGHELVNIYCPIVVSNAGLFNTYEHLLPGNARCLPGVKQQLGTVRPGLGMTSVFICLRGTKEDLHLPSTNYYVYYDTDMDQAMERYVSMPREEAAEHIPLLFFAFPSAKDPTWEDRFPGRSTMIMLIPTAYEWFEEWQAELKGKRGSDYETFKNSFVEASMSVVLKLFPQLEGKVESVTAGSPLTNQFYLAAPRGACYGADHDLGRLHPCVMASLRAQSPIPNLYLTGQDIFTCGLVGALQGALLCSSAILKRNLYSDLKNLDSRIRAQKKKN
B4: SCYL1 (other, human, UniProt Q96KG9 1-808, looked up)
chain: MWFFARDPVRDFPFELIPEPPEGGLPGPWALHRGRKKATGSPVSIFVYDVKPGAEEQTQVAKAAFKRFKTLRHPNILAYIDGLETEKCLHVVTEAVTPLGIYLKARVEAGGLKELEISWGLHQIVKALSFLVNDCSLIHNNVCMAAVFVDRAGEWKLGGLDYMYSAQGNGGGPPRKGIPELEQYDPPELADSSGRVVREKWSADMWRLGCLIWEVFNGPLPRAAALRNPGKIPKTLVPHYCELVGANPKVRPNPARFLQNCRAPGGFMSNRFVETNLFLEEIQIKEPAEKQKFFQELSKSLDAFPEDFCRHKVLPQLLTAFEFGNAGAVVLTPLFKVGKFLSAEEYQQKIIPVVVKMFSSTDRAMRIRLLQQMEQFIQYLDEPTVNTQIFPHVVHGFLDTNPAIREQTVKSMLLLAPKLNEANLNVELMKHFARLQAKDEQGPIRCNTTVCLGKIGSYLSASTRHRVLTSAFSRATRDPFAPSRVAGVLGFAATHNLYSMNDCAQKILPVLCGLTVDPEKSVRDQAFKAIRSFLSKLESVSEDPTQLEEVEKDVHAASSPGMGGAAASWAGWAVTGVSSLTSKLIRSHPTTAPTETNIPQRPTPEGVPAPAPTPVPATPTTSGHWETQEEDKDTAEDSSTADRWDDEDWGSLEQEAESVLAQQDDWSTGGQVSRASQVSNSDHKSSKSPESDWSSWEAEGSWEQGWQEPSSQEPPPDGTRLASEYNWGGPESSDKGDPFATLSARPSTQPRPDSWGEDNWEGLETDSRQVKAELARKKREERRREMEAKRAERKVAKGPMKLGARKLD
B5: SL C39A14 (other, human, UniProt Q15043 31-492, looked up)
chain: SSLGAPAISAASFLQDLIHRYGEGDSLTLQQLKALLNHLDVGVGRGNVTQHVQGHRNLSTCFSSGDLFTAHNFSEQSRIGSSELQEFCPTILQQLDSRACTSENQENEENEQTEEGRPSAVEVWGYGLLCVTVISLCSLLGASVVPFMKKTFYKRLLLYFIALAIGTLYSNALFQLIPEAFGFNPLEDYYVSKSAVVFGGFYLFFFTEKILKILLKQKNEHHHGHSHYASESLPSKKDQEEGVMEKLQNGDLDHMIPQHCSSELDGKAPMVDEKVIVGSLSVQDLQASQSACYWLKGVRYSDIGTLAWMITLSDGLHNFIDGLAIGASFTVSVFQGISTSVAILCEEFPHELGDFVILLNAGMSIQQALFFNFLSACCCYLGLAFGILAGSHFSANWIFALAGGMFLYISLADMFPEMNEVCQEDERKGSILIPFIIQNLGLLTGFTIMVVLTMYSGQIQIG
notes: Printed as SL C39A14; read as SLC39A14
B6: SHCBP1 (other, human, UniProt Q8NEM2 2-672, looked up)
chain: ADGSLTGGGLEAAAMAPERMGWAVEQELASLEKGLFQDEDSCSDCSYRDKPGSSLQSFMPEGKTFFPEIFQTNQLLFYERFRAYQDYILADCKASEVQEFTAEFLEKVLEPSGWRAVWHTNVFKVLVEITDVDFAALKAVVRLAEPYLCDSQVSTFTMECMKELLDLKEHRLPLQELWVVFDDSGVFDQTALAIEHVRFFYQNIWRSWDEEEEDEYDYFVRCVEPRLRLHYDILEDRVPSGLIVDYHNLLSQCEESYRKFLNLRSSLSNCNSDSEQENISMVEGLKLYSEMEQLKQKLKLIENPLLRYVFGYQKNSNIQAKGVRSSGQKITHVVSSTMMAGLLRSLLTDRLCQEPGEEEREIQFHSDPLSAINACFEGDTVIVCPGHYVVHGTFSIADSIELEGYGLPDDIVIEKRGKGDTFVDCTGADIKISGIKFVQHDAVEGILIVHRGKTTLENCVLQCETTGVTVRTSAEFLMKNSDLYGAKGAGIEIYPGSQCTLSDNGIHHCKEGILIKDFLDEHYDIPKISMVNNIIHNNEGYGVVLVKPTIFSDLQENAEDGTEENKALKIQTSGEPDVAERVDLEELIECATGKMELCARTDPSEQVEGNCEIVNELIAASTQKGQIKKKRLSELGITQADDNLMSQEMFVGIVGNQFKWNGKGSFGTFLF

Substitutions are numbered along the chain they refer to.

The first test concerns the target T1, LZTR1 R810W-FLAG. Put plainly: IP/MS, LZTR1 R810W-FLAG, U87. The procedure, abridged:
(§1)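 Read-out: spectral counts from LC-MS/MS (Orbitrap Fusion) after MaxQuant identification. Variable modifications were Met oxidation, protein N-terminal acetylation and N/Q deamidation.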
B1: the binding result is given as “binds”.
Still for that read-out and setting: the value for B2 was “binds”; that for B3 was “binds”; that for B4 was “binds”.
On the same count and under the same terms, the value for B5 was “binds”.
The same measure, in the same setting: in the case of B6 it was “binds”.

The next test concerns the target T2, LZTR1-FLAG. Put plainly: IP/MS, LZTR1 wild type-FLAG, U87. Summed up:
as §1
Regarding B1, the binding result is on record as “binds”.
Still for that read-out and setting: the value for B2 was “binds”.
On the same count and under the same terms, the value for B3 was “binds”; that for B4 was “binds”; that for B5 was “binds”.
The same measure, in the same setting: the value for B6 was “binds”.

Values taken from patent US20250262210A1 (TRUSTEES OF COLUMBIA UNIVERSITY IN THE CITY OF NEW YORK, published 2025).
